From the Human Domainome abundance scans (Beltran et al. 2025)

B1: E3 ubiquitin-protein ligase NEDD4-like, residues 539 to 589; numbered along this chain, Q96PU5 (parent)
chain: KTSLNPNDLGPLPPGWEERIHLDGRTFYIDHNSKITQWEDPRLQNPAITGP
B2: 1-phosphatidylinositol 4,5-bisphosphate phosphodiesterase gamma-2, residues 772 to 827; numbered along this chain, P16885 (parent)
chain: RTVKALYDYKAKRSDELSFCRGALIHNVSKEPGGWWKGDYGTRIQQYFPSNYVEDI

Variants of: B1
Test: abundance fitness (aPCA) (normalised: wild type 0, dead -1); higher = more abundant; growth selection in yeast, the domain comes from the species named
Conditions: Homo sapiens

Abundance fitness, by site and new letter:
T2: G -0.308 | A -0.223 | F 0.31 | K -0.066 | C -0.181 | W -0.699 | D 0.142 | H -0.385 | L -0.158 | Q -0.024 | E -0.1 | V -0.344 | I 0.067 | R -0.365 | S -0.023 | P -0.341 | N 0.374 | Y -0.001
S3: D -0.085 | V -0.353 | G -0.353 | C -0.339 | Q -0.427 | R -0.338 | Y -0.046 | A -0.412 | M -0.193 | N 0.093 | T -0.175 | W -0.86 | H -0.223 | E -0.363 | K -0.264 | L -0.345 | I -0.162 | P -0.308
N7: G 0.005 | H -0.146 | A -0.01 | F -0.11 | D 0.044 | E 0.001
P6: S 0.156 | Y -0.105 | T 0.144 | H -0.237 | N 0.374 | M 0.112 | K 0.146 | I 0.077 | D 0.159 | F -0.123 | E 0.057 | Q -0.199 | R 0.015 | W -0.176 | G 0.027
K1: T -0.328 | V -0.885 | D -0.201 | A -0.774 | E -0.473 | L -0.313 | N -0.041 | R -0.12 | S -0.19 | I -0.062 | G -1.01 | W -1.08 | H -0.704
N5: A -0.167 | K -0.247 | M 0.01 | G -0.175 | D -0.407 | W -0.538 | S -0.123 | R -0.293 | C -0.04 | P -0.487 | L -0.212 | V -0.075 | Y -0.259 | I -0.256 | T -0.203 | F -0.135 | E 0.019 | Q -0.267 | H 0.008
L4: V -0.139 | T -0.303 | H -0.242 | K 0.116 | Q -0.024 | A -0.205 | F -0.003 | Y -0.105 | E -0.143 | I -0.136 | G -0.12 | S -0.07 | C -0.252 | N -0.295 | P -0.281 | R -0.241 | D -0.108 | W -0.283

Variants of: B2
Test: as above
Conditions: Homo sapiens

Abundance fitness of substitutions, site by site:
S50: K 0.103 | A 0.221 | Y 0.057 | F -0.181 | G -0.093 | C -0.18 | R 0.035 | Q -0.398 | M 0.071 | H -0.163 | P -0.241 | D -0.506 | L -0.737 | I -0.261 | W -0.412 | T -0.352
F48: S -0.872 | T -0.952 | M -0.911 | P -0.923 | L -0.541 | W -0.848 | V -0.939 | E -1.05 | N -0.437 | A -1.02 | R -0.982
V53: G -0.923 | R -0.836 | F -0.803 | L -0.876 | A -0.442 | T -0.177 | H -0.947 | K -0.979 | Q -0.731 | E -0.934 | M -0.731 | D -0.823 | P -1.02
E54: W -0.55 | M -0.316 | A -0.119 | L -0.434 | D -0.291 | F -0.04 | R -0.125 | G -0.276 | V -0.244 | N -0.196 | I -0.353 | H -0.272 | Q -0.392 | C -0.197 | Y -0.38 | T -0.256
Y47: L 0.002 | D -0.763 | S -0.293 | V -0.34 | N -0.256 | F -0.051 | M -0.417 | C -0.401 | R 0.076 | Q -0.167 | H -0.437 | I -0.607 | G -0.604 | E -0.672
G41: P -1.01 | S -0.627 | Y -0.557 | H -0.151 | V -0.889 | T -0.699 | F -0.54 | M -0.268 | Q -0.217 | E -0.117 | I -0.566 | K -0.012 | D 0.069 | R -0.234 | C -0.581 | A -0.273
I44: M 0.019 | E -0.133 | L -0.111 | K -0.008 | F -0.237 | C -0.074 | D -0.64 | V 0.043 | T 0.191 | W -0.384 | G -0.811 | Q -0.246 | A -0.196 | S -0.454 | Y -0.116 | H 0.026 | N -0.224 | P -0.845
Q45: A -0.335 | C -0.33 | N -0.273 | K -0.51 | E -0.819 | H -0.458 | G -0.278 | I -0.658 | Y -0.732 | W -0.916 | L -0.923 | V -0.942 | P -0.699 | D -0.753 | R -0.92 | S -0.472 | T -0.651
R43: M -0.049 | S -0.199 | L -0.139 | V -0.349 | H 0.022 | N 0.097 | K -0.018 | W -0.167 | Y -0.228 | I -0.377 | E -0.033 | D -0.243 | G -0.01 | F -0.359 | Q -0.039 | C -0.111 | A 0.015 | P -0.909 | T -0.269
T42: R 0.03 | L -0.155 | N 0.139 | F -0.152 | E 0.168 | D 0.076 | I -0.021 | K -0.243 | M -0.01 | Q -0.262 | P 0.147 | C -0.227 | A -0.065 | S 0.054 | G 0.078 | V -0.165 | W -0.186 | Y -0.385
D55: E 0.065 | Y -0.287 | C -0.139 | L -0.448 | F -0.202 | M 0.086 | V -0.238 | N -0.033 | H -0.213 | Q -0.281 | P -0.022 | I -0.365 | A -0.114 | S -0.216 | G -0.314
Y52: R -0.295 | I -0.077 | E -0.943 | T 0.01 | C -0.086 | P -0.892 | M 0.045 | W -0.327 | A -0.092 | L 0.026 | K -0.138 | D -0.98 | H -0.222 | Q -0.281 | F 0.022 | N -0.605 | G -0.787 | S -0.304
N51: T -0.025 | E 0.094 | Q -0.129 | I -0.373 | L -0.261 | W -0.022 | V -0.134 | S 0.067 | M -0.232 | G -0.034 | H 0.208 | F -0.398 | A -0.025 | R -0.057 | P -0.425 | Y -0.155 | K -0.076 | C 0.13
Y40: W -0.713
Q46: L -0.041 | W -0.367 | Y -0.223 | E -0.684 | M 0.006 | P -0.866 | G 0.086 | N -0.114 | V -0.653 | R -0.175 | A 0.053 | C -0.193 | S 0.054 | T -0.391 | F -0.274 | K -0.067 | D -0.673
